The values that follow come from patent US20220119490A1 (Genentech, published 2022).

In assay [1] the target is T1, PTPRD P249L variant extracellular domain (human, UniProt P23468 21-1265).
T1 construct: extracellular domain; also called IG3 mutant
T1 sequence (looked up): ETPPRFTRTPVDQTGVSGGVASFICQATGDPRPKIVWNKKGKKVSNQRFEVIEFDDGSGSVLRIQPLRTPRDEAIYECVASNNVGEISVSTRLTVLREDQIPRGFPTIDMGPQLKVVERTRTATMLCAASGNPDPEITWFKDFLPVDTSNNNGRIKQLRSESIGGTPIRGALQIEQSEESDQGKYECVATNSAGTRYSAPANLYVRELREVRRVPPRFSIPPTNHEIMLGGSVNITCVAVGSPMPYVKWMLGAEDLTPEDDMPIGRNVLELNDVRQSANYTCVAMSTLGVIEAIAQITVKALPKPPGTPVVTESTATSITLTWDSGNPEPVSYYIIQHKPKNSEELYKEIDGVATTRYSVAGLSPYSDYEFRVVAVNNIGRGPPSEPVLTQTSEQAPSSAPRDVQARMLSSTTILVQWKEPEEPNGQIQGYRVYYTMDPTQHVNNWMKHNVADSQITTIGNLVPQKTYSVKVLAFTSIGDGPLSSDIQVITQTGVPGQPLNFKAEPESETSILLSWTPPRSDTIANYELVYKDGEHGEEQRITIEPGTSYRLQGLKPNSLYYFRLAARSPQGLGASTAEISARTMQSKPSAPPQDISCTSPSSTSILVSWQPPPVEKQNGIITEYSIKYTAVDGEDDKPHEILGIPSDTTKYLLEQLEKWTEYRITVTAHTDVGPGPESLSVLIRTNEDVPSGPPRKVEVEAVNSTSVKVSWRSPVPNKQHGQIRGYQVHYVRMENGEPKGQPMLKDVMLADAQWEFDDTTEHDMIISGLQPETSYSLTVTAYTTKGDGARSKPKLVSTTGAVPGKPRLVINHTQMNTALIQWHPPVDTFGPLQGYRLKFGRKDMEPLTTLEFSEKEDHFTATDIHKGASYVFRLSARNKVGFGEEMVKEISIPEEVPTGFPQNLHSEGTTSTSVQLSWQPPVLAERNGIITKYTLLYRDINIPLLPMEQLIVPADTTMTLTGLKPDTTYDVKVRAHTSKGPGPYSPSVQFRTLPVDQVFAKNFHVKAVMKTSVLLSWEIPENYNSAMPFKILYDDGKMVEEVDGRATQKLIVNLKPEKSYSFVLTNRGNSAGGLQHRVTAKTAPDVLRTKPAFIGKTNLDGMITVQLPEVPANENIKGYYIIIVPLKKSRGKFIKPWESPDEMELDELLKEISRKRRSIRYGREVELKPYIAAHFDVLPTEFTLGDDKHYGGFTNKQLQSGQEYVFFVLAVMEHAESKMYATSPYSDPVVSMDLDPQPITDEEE
Put plainly: extracellular interaction screen: pentameric PTPRD variant ECD on ECD-Fc prey (FIG. 5L).

The target in assay [2] is T2, PTPRD R232C R233C variant extracellular domain (human, UniProt P23468 21-1265).
T2 construct: extracellular domain; also called R232C/R233C double mutant; IG2 mutant
T2 sequence (looked up): T1 sequence (looked up) with R212C, R213C, L229P
The description is as above.

Numbering of substitutions follows the chain as printed.

B1: LRRC4B extracellular domain (receptor, human, UniProt Q9NT99 36-576, looked up)
chain: AGGGGVAVTSAAGGGSPPATSCPVACSCSNQASRVICTRRDLAEVPASIPVNTRYLNLQENGIQVIRTDTFKHLRHLEILQLSKNLVRKIEVGAFNGLPSLNTLELFDNRLTTVPTQAFEYLSKLRELWLRNNPIESIPSYAFNRVPSLRRLDLGELKRLEYISEAAFEGLVNLRYLNLGMCNLKDIPNLTALVRLEELELSGNRLDLIRPGSFQGLTSLRKLWLMHAQVATIERNAFDDLKSLEELNLSHNNLMSLPHDLFTPLHRLERVHLNHNPWHCNCDVLWLSWWLKETVPSNTTCCARCHAPAGLKGRYIGELDQSHFTCYAPVIVEPPTDLNVTEGMAAELKCRTGTSMTSVNWLTPNGTLMTHGSYRVRISVLHDGTLNFTNVTVQDTGQYTCMVTNSAGNTTASATLNVSAVDPVAAGGTGSGGGGPGGSGGVGGGSGGYTYFTTVTVETLETQPGEEALQPRGTEKEPPGPTTDGVWGGGRPGDAAGPASSSTTAPAPRSSRPTEKAFTVPITDVTENALKDLDDVMKTTK
notes: extracellular domain; ECD-Fc prey; also called NGL-3; netrin-G ligand-3
Turning to B1, the binding result in assay [1] and in assay [2] was “no binding” each time.
